Experimental findings from publication PMC5052687, “The structural basis for CD36 binding by the malaria parasite” (Nature Communications, 2016) are described below.

To fix the notation:
B1: IT4var15 CIDRα3.5 domain (domain or fragment)
chain: PGCGVELIGNEWKEKNKGECKGGKRYNIPKGTKHNVIPVLSFGDEHKEIIEKIEQFCAESNSDSSKLTEQWKCYYGDKEYEVCTLENRNKSEEDPEEIQKTFHNFFYFWIRHLLNDSIEWRDKINNCIEKAKEGKCKNECKTDCGCFQRWIGKKKEEWGEIKKHFKTQDGFSIFGNNYDFVLENVLNIDELFQDITEAYGNSQKIQGIKDTLAKKKTQAADDATEQKNTIDLLFEYDSEEAEKCKKIQEEC
notes: CIDRα3.5 domain of the PfEMP1 IT4var15, Plasmodium falciparum; also called CIDRα3.5 IT4var15; IT4var15 (α3.5)
B2: IT4var24 CIDRα2.2 domain (domain or fragment)
chain: PLCGVNGPKGNWTDIEDKECTLVEKKKYDSNNTTNIDILTADKSQKNILQKYNKFCKNGANDEKSATPTANGGGQIKNWQCYYDESKESGQNNNCILGKWEDFTGNEDVTSYNVFFYNSIIEMLNDSIEWKDKLNICINNKTGKCRKVCKNPCECYKRWIEKKKTELEKIKDHFRKQKDIGDAAQREMTLNITLNNNFLNDIKDAYPVKQQLQKIEERLKDKMQEDFIFERTKTSIDKFLQEEEQFAEKCIEKHKC
notes: CIDRα2.2 domain of the PfEMP1 IT4var24, Plasmodium falciparum; also called CIDRα2.2 IT4var24; IT4var24 (α2.2)
B3: IT4var61 CIDRα2.7 domain (domain or fragment)
chain: PWCGVKRNGGGWKAKSDGECAKEKKTYKKKNITEIPVLTPDKEKHNILQKYENFCKNSDGNNGDQIKNWQCYYEEKDESDNDGDSNICVLQNENIGKKEEKSMPYHPFFWKWVTEMLIDSMYWRKELKRCINKETKACKNGCKNNCDCYKRWVEEKKKEWGQIKTHFNTQEDMREDIGENTDPGIILAALLNIEDLFENIKDTYGDVKEIKDINQMLEKENEENEGTAGADSKKKNTIDLMINHEQKDAQKCVTNNPDKDC
notes: CIDRα2.7 domain of the PfEMP1 IT4var61, Plasmodium falciparum; also called CIDRα2.7 IT4var61; IT4var61 (α2.7)
B4: IT4var45 CIDRα2.9 domain (domain or fragment)
chain: PWCGVNGTKGNWTPKNDDDCKPGNEYKNYENTQIPILTGDKTKSEIVERYRKFCKNNGKNGANGREGGVGGSENGAASNSDNATTGYCGTNNNDKDPSLCEKWTCYYKKKEKNDGKKAINFCVLQDDKVGKSQEKSMHYNSFFWDWVYHMLHDSLDWRKQLGRCINKKEETKCIGSCNKKCECFAKWVGHKQQEWEQIKKHFLKQDDIGQETNCDPMVTLEILLDIDELLKNIKDTHANADDIDRIQNMLQQAGFDGGVAALVGRCTEGFVAEKDTTIDKFLEKELQEAEKCLETHKEKC
notes: CIDRα2.9 domain of the PfEMP1 IT4var45, Plasmodium falciparum; also called CIDRα2.9 IT4var45; IT4var45 (α2.9)
B5: IT4var12 CIDRα6 domain (domain or fragment)
chain: PWCGLKKQADGTWKRLYENDPQCPIKPKYEPPKGEEPTEIDVLYTGKENKDIIVKLREFCKTDGNTGFKNEEWNCYYQVGNDKCVLENGEELGGEKKVKDYDNFLMFWVAHMLKDSIEWRSKLSNCLKSDKKTCIKKCNDNCKCYEKWIGKKKVEWTQIKKHFDKQTDFQGWGRYFVLETVLEGDQFFTDITKAYGDAREIVHIQEMLQKKKEQVLHEDASNMKTIIDELLDHELKEAKQCIVNHKDNNC
notes: CIDRα6 domain of the PfEMP1 IT4var12, Plasmodium falciparum; also called CIDRα6 IT4var12; IT4var12 (α6)
B6: HB3var13 CIDRα3.2 domain (domain or fragment)
chain: PLCGVKKEKGTWVRKDSMNDCPRIKLYKPINDKVGTPINFLYSGDGQTEIAEKLKKFCRTENGSDGSSSARANGASGDKNGGSGSQELYQYWKCYQIGDLQKVREGEDDEDDGQYDQEVENAGGLCILQKTNGKENVNKQKTSHEIQKTFNPFFYYWVVHMLKDSIHWRTEKIKSCINNTNELKACKNNKKCNSDCDCFKRWVKQKGKEWGQIKVHFKTQDIRGKVVNGNTVVSFFLDHDELLEGVLDKGLLLESLQEAYGNAEDIKHIKKLLQETDVVGGGEHKTTIDFLLKEELNEAEECLKKQKDNEC
notes: CIDRα3.2 domain of the PfEMP1 HB3var13, Plasmodium falciparum; also called CIDRα3.2 HB3var13; HB3var13 (α3.2)
B7: IT4var30 CIDRα2.10 domain (domain or fragment)
chain: PWCGIEEQKVDGKWKAKNNGECAKVENKIYDPKKTTTIEILTGDNEKFGIYEKYNKFCANGKNGVTSGAPDTAPGKNGNQIVTWQCYYDKKKRSGQNNDNCVEGTWEKFTGKQTVKSYNVFFWDWVYHMLHDSLEWRERLNSCINNAKSQNCKNNKCNRECGCFAKWVVKKKDEWDKIKDHFNKQENIGQNVGFIEFNHYGVLEGVLDKDELLKNIKDTHADAKDIERIDKMLQQAGVVGGGRGGENNTIIDKFLQEEERFAKDCQQKQEEC
notes: CIDRα2.10 domain of the PfEMP1 IT4var30, Plasmodium falciparum; also called CIDRα2.10 IT4var30; IT4var30 (α2.10)
B8: MAL6P1.252 CIDRα2.1 domain (domain or fragment)
chain: PWCGVKPGGPPWKDNDIDSCGKKEISFSDKDTTDISILSTDRAKKNILQKLENFCRDTEHINHDIWKCHYENTDNDNCILQNENTGSEKQKIMPFDAFFFLWLTQMLDDSIEWRKKLKTCINNEKPTNCIRGCKKPCECFERWVEQKEEEWISIEKHFDKQRDISEEERYITLEYILNEFFMDKIEKAYGIEKSKELKEKLKSNKGHGIIRDTEHSQDAIKILLEHELEDAKKCTETHNDEKC
notes: CIDRα2.1 domain of the PfEMP1 MAL6P1.252, Plasmodium falciparum; also called CIDRα2.1 MAL6P1.252
B9: IT4var14 CIDRα5 domain (domain or fragment)
chain: PWCGIEEQKDGKWKRINDHSACKEEELYTPKENAKYTKINVLTSGEGHEDIAKRLKEFCTKTQNGGGGSDDCGGNSDSSLCEPWQCYQPDQLEKVGGGEVDDKLKGAGGLCIFEKMKGEKKVKKQKTFNNFFNFWVAHVLKDSIDWRTQLTKCLSEDKLKKCEKGCKSNCECFKKWIEKKEKEWIKVKDQFNKQTDFLEWKHYLVLETILENYYFENIQKAYGDLKSIQEMKKMIKENKQNKNRTKDDEDALDVLFDHEKEEAEDCLDIHE
notes: CIDRα5 domain of the PfEMP1 IT4var14, Plasmodium falciparum; also called CIDRα5 IT4var14; IT4var14 (α5)
B10: IT4var33 CIDRα2.4 domain (domain or fragment)
chain: PLCGLGMQEPPWNPKKDTDCEDRGIKTFDDRNSTPINLLVKDVTGTSIVEKLGGLCGNGAKKNIQTWKCRFESSQNYYCVLQNDKKNTPQQEIESFNSLFWHWITEMLKDSIDWRKEHENCINNNNTCKKGCKSKCECFEKWVKRMKEEWKQVLEVYDKQPDFKEVFTPYFTLGYLLKEYFTKIKAPYEEVESVQEFIKEMEQIIDENSNNINATKENNSITKFLQHEEGIATECKKTHNEEKC
notes: CIDRα2.4 domain of the PfEMP1 IT4var33, Plasmodium falciparum; also called CIDRα2.4 IT4var33; IT4var33 (α2.4)
B11: MCvar1 PfEMP1 CIDRα2.8 domain (residues 576-745, C626S) (domain or fragment)
chain: EDKIMSYNAFFWMWVHDMLIDSIKWRDEHGRCINKDKGKTCIKGCNKKCISFQKWVEQKKTEWGKIKDHFRKQKDIPKDWTHDDFLQTLLMKDLLLEIIQDTYGDANEIKRIEALLEQAGVGGIDFAALAGLYTKGFVAEKDTTIDKLLQHEQKEADKCLKTHTDDTCPP
notes: CIDRα2.8 domain of the MCvar1 PfEMP1, Plasmodium falciparum; the reverse cloning primer (D1:p11) ends at ...DTCPP; also called MCvar1 CIDRα2.8; MC179 CIDRα2.8; source: HEK293, secreted, purified (TALON, size-exclusion chromatography); for the crystal co-expressed with CD36 in the presence of kifunensine
B12: MCvar1 CIDRα2.8 domain (residues 576-745, C626S) E672A (domain or fragment)
chain: B11 chain with E97A
notes: CIDRα2.8 domain of the MCvar1 PfEMP1, Plasmodium falciparum; source: HEK293, secreted, purified (TALON, size-exclusion chromatography)
B13: MCvar1 CIDRα2.8 domain (residues 576-745, C626S) Q648A (domain or fragment)
chain: B11 chain with Q73A
notes: as for B12
B14: MCvar1 CIDRα2.8 domain (residues 576-745, C626S) D680N:N682T (domain or fragment)
chain: B11 chain with D105N, N107T
modifications: N-linked glycan at the introduced site on the majority of the protein
notes: CIDRα2.8 domain of the MCvar1 PfEMP1, Plasmodium falciparum; Introduces an N-linked glycosylation site into site 2 of the crystal; also called site 2 mutant; site 2; source: HEK293, secreted, purified (TALON, size-exclusion chromatography)
B15: MCvar1 CIDRα2.8 domain (residues 576-745, C626S) F660N:Q662T (domain or fragment)
chain: B11 chain with F85N, Q87T
modifications: N-linked glycan at the introduced site on a small fraction of the protein
notes: CIDRα2.8 domain of the MCvar1 PfEMP1, Plasmodium falciparum; Introduces an N-linked glycosylation site into site 1 of the crystal; also called site 1 mutant; site 1; source: HEK293, secreted, purified (TALON, size-exclusion chromatography)
B16: MCvar1 PfEMP1 CIDRα2.8 domain (residues 576-745, C626S) (domain or fragment)
chain: B11 chain
notes: PfEMP1 MCvar1, Plasmodium falciparum, CIDRα2.8 domain, residues 576-745; Synthetic codon-optimised cDNA (GeneArt) cloned into pHLsec-8H; also called MCvar1 CIDRα2.8; source: HEK293 cells, secreted, purified (TALON, size-exclusion chromatography); coexpressed with CD36 with kifunensine for the structure and SEC-MALS, expressed individually for SPR

For orientation: Kd means a measure of binding affinity in units of concentration. Higher therefore signals a looser complex. For orientation: stoichiometry N means a count of units in the complex or per binding partner.

Positions count from the first letter of the chain named. In names and notes the source's numbering stands.

T1 sequence (P16671 35-439): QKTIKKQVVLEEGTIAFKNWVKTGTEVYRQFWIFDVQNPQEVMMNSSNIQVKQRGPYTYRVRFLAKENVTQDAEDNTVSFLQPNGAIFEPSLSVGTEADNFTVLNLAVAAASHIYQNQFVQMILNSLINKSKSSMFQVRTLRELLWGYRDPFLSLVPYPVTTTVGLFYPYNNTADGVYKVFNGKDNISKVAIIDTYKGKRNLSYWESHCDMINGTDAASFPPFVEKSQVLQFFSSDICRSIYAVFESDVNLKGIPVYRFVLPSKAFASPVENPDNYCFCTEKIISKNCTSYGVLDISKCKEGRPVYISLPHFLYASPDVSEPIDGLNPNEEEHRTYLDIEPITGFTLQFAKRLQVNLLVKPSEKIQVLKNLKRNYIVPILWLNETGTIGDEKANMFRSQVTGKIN

One experiment addresses T1, human CD36 ectodomain (residues 35-439), C-terminal 8xHis and biotinylated BAP tag (human, UniProt P16671 35-439, biotin on the BAP tag (in vitro, BirA ligase)).
T1 construct: CD36, human, ectodomain residues 35-439; Construct for SPR; vector pHLsec-8H; also called CD36 wild-type; w.t; source: HEK293T, purified (TALON, size-exclusion chromatography), biotinylated in vitro with BirA; not shown: BAP tag, C-terminal, kept
Kind of experiment: SPR; biotinylated CD36 (wild type or F153A) immobilised on a CAPture chip to ~700 RU; CIDRα domains as analytes, two-fold dilutions from 400 nM (Supplementary Figure 10: 400 nM only), 240 s injection, 300 s dissociation; 25 °C, 20 mM HEPES pH 7.5, 0.15 M NaCl, 0.005% Tween20; affinities from equilibrium binding, one site-binding model. Particulars: both partners purified. In general terms: In SPR one partner is held on a chip, and binding of the other changes the refractive index at the surface.
B1 displayed a Kd of 3 nM. This counts as single-digit nanomolar. B2: binding was characterised by a dissociation constant (Kd) of 15.8 nM. B3 had a Kd of 72 nM. On the same count and under the same terms, the figure for B4 is 23 nM. On the same count and under the same terms, the figure for B5 is 6.6 nM; for B6 it is 12.3 nM.

B7 had a Kd of 55 nM. Still for that read-out and setting: under B8 stands 3.6 nM; under B9, 180 nM. B10 returned a Kd of 3.3 nM.

Another experiment addresses T1, human CD36 ectodomain (residues …). Described as above. Conditions: both partners purified. The source holds these as a separate data set.
Take B11: the Kd was found to be 12 nM. The same measure, in the same setting: under B12 stands 86 nM; under B13, 362 nM. B14 came in with a Kd of 18 nM. Against the preceding molecule, the Kd is about 20-fold lower. Still for that read-out and setting: under B15 stands 306 nM.

The target in a further experiment is T2, human CD36 ectodomain (residues 35-439) (human, UniProt P16671 35-439).
T2 construct: CD36, human, ectodomain residues 35-439; Cloned into pHLsec-8H (secretion vector); For crystallisation the complex was deglycosylated (endoglycosidase F1) and treated with carboxypeptidase Y in situ
T2 sequence (P16671 35-439): as above
As to the kind of experiment: SEC-MALS; coexpressed and purified CD36:MCvar1 CIDRα2.8 complex at 1 mg/ml, Superdex S200 10/300 GL, 10 mM HEPES pH 7.5, 0.15 M NaCl. Conditions: both partners purified. Background: In gel filtration, larger molecules generally elute earlier.
On to B16, for which the “stoichiometry N” value is 1.
